From article PMC7000336, “Structural insights and activating mutations in diverse pathologies define mechanisms of deregulation for phospholipase C gamma enzymes” (EBioMedicine, 2020)

T1: Full-length human PLCγ1 (human, UniProt P19174 1-1290)
T1 construct: phospholipase C gamma 1 (PLCγ1), human, full length; YFP fusions are named only for the lipid array (LiMA), so Myc is surmised here; Cloned in a Gateway-modified pTriEx4 and purified as a His-tagged protein; No removal of tags is described; also called hPLCγ1; intact PLCγ1; source: Freestyle 293F cells, transfected, purified (HisTrap, Superdex 200)
T1 sequence (looked up): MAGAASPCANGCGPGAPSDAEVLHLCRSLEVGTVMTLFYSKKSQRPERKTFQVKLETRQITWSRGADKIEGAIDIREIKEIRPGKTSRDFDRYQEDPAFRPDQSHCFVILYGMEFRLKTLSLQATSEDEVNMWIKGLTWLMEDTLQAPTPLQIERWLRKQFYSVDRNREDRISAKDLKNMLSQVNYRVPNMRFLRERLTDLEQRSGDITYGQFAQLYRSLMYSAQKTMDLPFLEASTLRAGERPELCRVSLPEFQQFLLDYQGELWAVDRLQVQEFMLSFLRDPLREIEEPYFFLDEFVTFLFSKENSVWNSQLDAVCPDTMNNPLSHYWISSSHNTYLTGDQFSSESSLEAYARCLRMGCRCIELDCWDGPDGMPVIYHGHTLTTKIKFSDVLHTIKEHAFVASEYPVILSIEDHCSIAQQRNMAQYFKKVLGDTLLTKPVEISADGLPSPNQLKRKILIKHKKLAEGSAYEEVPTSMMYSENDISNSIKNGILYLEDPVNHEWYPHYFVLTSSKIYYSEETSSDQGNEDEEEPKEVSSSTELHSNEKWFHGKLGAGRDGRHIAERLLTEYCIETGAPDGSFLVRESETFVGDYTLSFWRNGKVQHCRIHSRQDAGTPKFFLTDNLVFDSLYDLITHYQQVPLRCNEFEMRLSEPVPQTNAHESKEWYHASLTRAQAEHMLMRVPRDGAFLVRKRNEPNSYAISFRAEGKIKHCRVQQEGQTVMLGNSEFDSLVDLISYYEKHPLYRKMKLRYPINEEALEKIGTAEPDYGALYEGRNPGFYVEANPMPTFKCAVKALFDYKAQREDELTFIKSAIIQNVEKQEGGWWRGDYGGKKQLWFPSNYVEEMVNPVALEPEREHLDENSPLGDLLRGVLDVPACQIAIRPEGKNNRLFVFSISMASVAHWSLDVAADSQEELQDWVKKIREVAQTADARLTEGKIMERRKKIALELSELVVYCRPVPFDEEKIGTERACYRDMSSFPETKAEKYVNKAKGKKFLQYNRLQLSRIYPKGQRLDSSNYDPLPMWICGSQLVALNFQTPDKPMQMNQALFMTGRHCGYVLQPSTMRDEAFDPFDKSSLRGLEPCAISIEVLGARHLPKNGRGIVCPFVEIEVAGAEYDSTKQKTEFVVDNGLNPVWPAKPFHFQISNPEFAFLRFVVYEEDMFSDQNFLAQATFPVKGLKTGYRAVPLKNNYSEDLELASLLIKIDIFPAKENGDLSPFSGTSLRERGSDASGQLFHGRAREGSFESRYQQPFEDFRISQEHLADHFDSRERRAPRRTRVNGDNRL


Experiments:
PLCγ1 (Homo sapiens) = PLCγ1 (Homo sapiens) (UniProt P19174); conditions: cited from earlier work
Full-length human PLCγ1 = target: T1, Full-length human PLCγ1; test: cryo-EM structure; complex of PLCγ1 and FGFR1-1P (mixed 1:10, purified by SEC), cross-linked with BS3 and purified again; 0.6 mg/ml on grids; 25 mM HEPES, 150 mM NaCl, 2 mM TCEP, pH 7.5; no ATP; Titan Krios with Volta phase plate; map at 5–8 Å with known domain structures docked as rigid bodies; conditions: both partners purified

FGFR1 intracellular portion, sequence (P11362 398-822): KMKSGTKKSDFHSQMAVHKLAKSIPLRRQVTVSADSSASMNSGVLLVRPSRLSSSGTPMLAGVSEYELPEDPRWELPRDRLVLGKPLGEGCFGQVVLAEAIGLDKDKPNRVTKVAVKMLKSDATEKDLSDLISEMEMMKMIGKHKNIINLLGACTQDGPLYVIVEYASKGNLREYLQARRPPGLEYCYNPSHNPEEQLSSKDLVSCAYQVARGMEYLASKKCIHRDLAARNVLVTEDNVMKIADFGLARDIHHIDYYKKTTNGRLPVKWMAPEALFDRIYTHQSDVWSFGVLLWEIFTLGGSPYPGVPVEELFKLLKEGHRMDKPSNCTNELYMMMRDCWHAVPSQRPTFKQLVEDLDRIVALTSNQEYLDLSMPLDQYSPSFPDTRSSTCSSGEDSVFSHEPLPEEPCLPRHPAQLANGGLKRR

| binding result (Full-length human PLCγ1) | Molecule | Kd (PLCγ1 (Homo sapiens)) [nM] |
| --- | --- | --- |
| – | FGFR1 intracellular portion (from UniProt P11362) | 5 |
| binds | Human FGFR1 kinase domain (456–774, L457V, Y463F, C488A, Y583F, C584S, Y585F, Y653F and Y654F), FGFR1-1P (domain or fragment, UniProt P11362 456-774, looked up, phosphotyrosine at 766 (pY766; FGFR1-1P), The methods call the protein in the complex FGFR1-1P, and the results speak of pY766 in its C-terminal tail; How the phosphorylation was made is not described here; also called FGFR1int; FGFRint; source: E. coli C41 (DE3), purified (HisTrap, Ulp1 cleavage, HiTrap Q, Superdex 75); not shown: His tag, N-terminal, cleaved; SUMO (from the vector pOPINS, cut by Ulp1), N-terminal, cleaved) MVAGVSEFELPEDPRWELPRDRLVLGKPLGEGAFGQVVLAEAIGLDKDKPNRVTKVAVKMLKSDATEKDLSDLISEMEMMKMIGKHKNIINLLGACTQDGPLYVIVEYASKGNLREYLQARRPPGLEFSFNPSHNPEEQLSSKDLVSCAYQVARGMEYLASKKCIHRDLAARNVLVTEDNVMKIADFGLARDIHHIDFFKKTTNGRLPVKWMAPEALFDRIYTHQSDVWSFGVLLWEIFTLGGSPYPGVPVEELFKLLKEGHRMDKPSNCTNELYMMMRDCWHAVPSQRPTFKQLVEDLDRIVALTSNQEYLDLSMPLD | – |
